Measurements taken from PMC10145556.

Molecular target: T1, LHRH receptor (LHRH-R) (human (endogenous in MCF-7 and Hs68)) (UniProt P30968)
T1 sequence: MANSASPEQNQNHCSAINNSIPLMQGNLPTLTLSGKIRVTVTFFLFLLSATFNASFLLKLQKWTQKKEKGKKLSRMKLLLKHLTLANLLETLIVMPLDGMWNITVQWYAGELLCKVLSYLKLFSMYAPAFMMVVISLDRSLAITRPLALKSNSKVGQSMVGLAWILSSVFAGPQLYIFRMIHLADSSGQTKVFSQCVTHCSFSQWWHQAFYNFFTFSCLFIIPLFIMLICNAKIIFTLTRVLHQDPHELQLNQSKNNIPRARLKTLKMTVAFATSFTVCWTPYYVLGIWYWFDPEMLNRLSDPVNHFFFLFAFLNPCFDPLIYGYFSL

B1: LHRH-BinBC (luteinizing hormone-releasing hormone peptide fused through a GSG linker to the N-terminus of the pore-forming C-terminal domain of BinB) (protein)
chain: QHWSYGLRPGGSGIPQLPQTSLLENIPEPTSLDDSGVLPKDAVRAVKGSALLPCIIVHDPNLNNSDKMKFNTYYLLEYKEYWHQLWSQIIPAHQTVKIQERTGISEVVQNSMIEDLNMYIGADFGMLFYFRSSGFKEQITRGLNRPLSQTTTQLGERVEEMEYYNSNDLDVRYVKYALAREFTLKRVNGEIVKNWVAVDYRLAGIQSYPNAPITNPLTLTKHTIIRCENSYDGHIFKTPLIFKNGEVIVKTNEELIPKINQ
  IC50 of inhibition of MCF-7 cell proliferation (MTT assay, 48 h, 1-16 μM LHRH-BinBC): 11 µM
